Substitutions are numbered along the chain they refer to.
B1: 6G5.1 (antibody, human IgG1, V domains shown)
VH: QVQLQQWGAGLLKPSETLSLTCAVYGGSFSGYYWSWIRQPPGKGLEWIGEINHSGSTNYNPSLKSRVTISVDTSKNQFSLKLSSVTAADTAVYYCARVINWFDPWGQGTLVTVSS
VL: DIQMTQSPSSVSASVGDRVTITCRASQDISSWLAWYQHKPGKAPKLLIYAASSLQSGVPSRFSGSGSGTDFTLTISSLQPEDFATYYCQQANSFPYTFGQGTKLEIKR
notes: Human IgG1 kappa from a hybridoma of an HC2/KCo5 transgenic mouse; VH4-34/JH5; VkL19/Jk2
B2: 2C5.1 (antibody, V domains shown)
VH: EVQLVQSGAEVKKPGESLKISCKGSGYRFTSYWIGWVRQMPGKGLEWMGIIYPGDSDTRYSPSFQGQVTISADKSISTAYLQWSSLKASDTAMYYCARAPTGDWFDPWGQGTLVTVSS
VL: B1 VL with V11L, D28G, H38Q, G41E, L46S, A91Y, F94Y, Y96P, Q100G, L104V
B3: 4D1.4 (antibody, V domains shown)
VH: EVQLVQSGAEVKKPGESLKISCKGSGYSFTGYWIGWVRQMPGKGLEWMGIIYPGDSDTTYSPSFQGQVTISADKSISTAYLQWSSLKASDTAMYYCARDQLGLFDYWGQGTLVTVSS
VL: B1 VL with V11L, D28G, H38Q, G41E, L46S, A50S, A91Y, N92D, F94Y
notes: Human IgG1 kappa from a hybridoma of an HC2/KCo5 transgenic mouse
B4: 10C5.6 (antibody, human IgG1, V domains shown)
VH: B1 VH
VL: DIQMTQSPSSVSASVGDRVTITCRASQDISSWLAWYQHKPGKAPKLLIYAASSLQSGVPSRFSGSGSGTDFTLTISSLQPEDFATYYCQQANSFPYTFGQGTKLEIK
notes: as for B3
B5: 4E4.2 (antibody, V domains shown)
VH: B2 VH
VL: DIQMTQSPSSLSASVGDRVTITCRASQGISSWLAWYQQKPDKAPKSLIYAASSLQSGVPSKFSGSGSGTDFTLTISSLQPEDFATYYCQQYNSYPPTFGGGTKVEIKR

How the values were obtained:
[1] = biological target: T1, recombinant soluble human CD4 (human, UniProt P01730 26-396, limits assumed); experiment: rCD4 column of Table 21 (same values as Table 19: BIAcore, rCD4 on chip)
T1 construct: Soluble recombinant antigen used in ELISA and on or over the sensor chip; also called rCD4; sCD4
Procedure: (§1) The rate and equilibrium constants presented in Table 19 were determined with a BIAcore, using antigen (rCD4) coupled to the sensor chip and flowing mAb over. These constants were derived from at least three independent experiments using purified mAbs.

[2] = biological target: T1, recombinant soluble human CD4; experiment: BIAcore, mAb captured on anti-human IgG Fc chip, rCD4 flowed over
Procedure: The rate and equilibrium constants presented in Table 18 were determined with a BIAcore (Pharmacia Biosensor) using goat anti-human IgG (Fc-specific) coupled to the sensor chip and flowing a saturating concentration of mAb over followed by various concentrations of antigen (rCD4). These constants were derived from three experiments using purified mAbs.

[3] = biological target: T1, recombinant soluble human CD4; experiment: SPR, sCD4 amine-coupled to sensor chip, antibody flowed over
[4] = biological target: T2, native human CD4 on the cell surface (human, UniProt P01730 26-458); experiment: flow cytometry, serial dilutions on SupT1 cells, half-maximal fluorescence
T2 construct: whole, on cells; also called native CD4; CD4 on SupT1 cells
Procedure: (§2) The avidity and affinity determinations described above were performed with recombinant CD4 (rCD4). To determine the avidity of the human monoclonal antibodies for native CD4 (nCD4). […] Specifically, serial dilutions of antibody were incubated with SupT1 cells for 6 hr on ice, washed and detected any bound antibody with FITC-goat anti-human Fey.
(§3) *Human monoclonal antibodies were incubated in serial dilutions with SupT1 cells for 6 hrs, washed twice and incubated with FITC-conjugated goat anti-human Fey antisera, washed and fixed. The Ka was calculated from the concentration of antibody yielding one-half of the maximum fluorescence as determined from a four-parameter fit.

[5] = biological target: T1, recombinant soluble human CD4; experiment: BIAcore, rCD4 coupled to chip, mAb flowed over
Procedure: as §1

[6] = biological target: T2, native human CD4 on the cell surface; experiment: ratio of Ka on rCD4 (BIAcore) to Ka on nCD4 (flow cytometry, SupT1)
Procedure: as §1, §2, §3

[7] = biological target: T2, native human CD4 on the cell surface; experiment: flow cytometry, serial dilutions on SupT1 cells
Procedure: as §2, §3

[8] = biological target: T1, recombinant soluble human CD4; experiment: association and dissociation rates of human CD4 antigen for the antibody; method not named
[9] = biological target: T3, cynomolgus monkey CD4 on peripheral blood lymphocytes (cynomolgus monkey, UniProt P79185 26-458); experiment: two-colour flow cytometry on peripheral blood lymphocytes
T3 construct: whole, on cells; also called cynomolgus CD4 cells
Procedure: (§4) It is further desirable for some purposes that the animal be a non-human primate that expresses CD4 comprising a cross-reactive epitope with human CD4 such that it is recognized by the monoclonal antibody. […] Peripheral blood lymphocytes were isolated from whole blood of chimpanzee, rhesus, and cynomolgus monkeys. […] The stained cells were then analyzed by flow cytometry to determine if each of the human monoclonal antibodies bound to endogenous CD4 on the surface of lymphocytes from each of these three non-human primates.

[10] = biological target: T4, chimpanzee CD4 on peripheral blood lymphocytes (chimpanzee, UniProt P16004 26-458); experiment: as above
T4 construct: whole, on cells; also called chimpanzee CD4 cells
Procedure: as §4

[11] = biological target: T5, rhesus monkey CD4 on peripheral blood lymphocytes (rhesus monkey, UniProt P16003 26-458); experiment: as above
T5 construct: whole, on cells; also called rhesus CD4 cells
Procedure: as §4

T5 sequence (P16003 26-458): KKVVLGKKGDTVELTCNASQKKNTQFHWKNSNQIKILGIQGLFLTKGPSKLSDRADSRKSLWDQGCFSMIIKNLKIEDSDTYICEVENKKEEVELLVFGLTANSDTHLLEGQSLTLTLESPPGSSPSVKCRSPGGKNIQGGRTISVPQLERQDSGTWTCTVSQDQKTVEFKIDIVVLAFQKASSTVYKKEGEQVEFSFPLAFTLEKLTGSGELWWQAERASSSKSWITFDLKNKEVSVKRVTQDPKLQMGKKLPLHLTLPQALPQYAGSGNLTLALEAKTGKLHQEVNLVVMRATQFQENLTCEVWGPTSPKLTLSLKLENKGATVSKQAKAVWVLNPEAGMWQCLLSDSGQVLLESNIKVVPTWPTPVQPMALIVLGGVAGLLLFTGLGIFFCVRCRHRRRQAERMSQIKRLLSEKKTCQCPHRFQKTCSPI
T3 sequence (P79185 26-458): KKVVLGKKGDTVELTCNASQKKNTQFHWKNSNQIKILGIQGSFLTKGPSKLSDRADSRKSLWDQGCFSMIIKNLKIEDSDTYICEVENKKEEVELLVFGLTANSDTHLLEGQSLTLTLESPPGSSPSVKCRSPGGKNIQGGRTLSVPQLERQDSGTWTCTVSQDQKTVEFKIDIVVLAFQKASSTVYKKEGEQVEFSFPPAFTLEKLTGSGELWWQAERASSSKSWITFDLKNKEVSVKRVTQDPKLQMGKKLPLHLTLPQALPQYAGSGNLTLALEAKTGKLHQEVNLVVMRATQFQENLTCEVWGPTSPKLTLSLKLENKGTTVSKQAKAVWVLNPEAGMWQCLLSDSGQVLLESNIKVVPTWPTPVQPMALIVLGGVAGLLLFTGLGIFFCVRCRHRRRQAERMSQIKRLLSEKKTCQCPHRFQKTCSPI
T4 sequence (P16004 26-458): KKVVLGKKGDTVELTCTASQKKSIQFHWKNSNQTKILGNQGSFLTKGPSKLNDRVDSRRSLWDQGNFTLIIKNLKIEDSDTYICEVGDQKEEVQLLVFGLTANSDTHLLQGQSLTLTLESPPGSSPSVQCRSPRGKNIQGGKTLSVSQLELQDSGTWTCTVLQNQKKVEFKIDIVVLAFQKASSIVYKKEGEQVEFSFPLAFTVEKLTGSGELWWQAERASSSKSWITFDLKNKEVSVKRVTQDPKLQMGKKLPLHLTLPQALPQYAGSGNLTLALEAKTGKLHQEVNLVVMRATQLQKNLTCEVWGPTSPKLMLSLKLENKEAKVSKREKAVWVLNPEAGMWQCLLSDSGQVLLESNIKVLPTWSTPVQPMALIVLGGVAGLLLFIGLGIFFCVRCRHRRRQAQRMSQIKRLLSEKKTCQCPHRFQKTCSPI

Row | Binder | Ka [1] | Ka [2] | koff [2] | kon [2] | Ka [3] | koff [3] | kon [3] | Ka [4] | Ka [5] | koff [5] | kon [5] | Ratio of Ka (rCD4/nCD4) [6] | Ka [7] | Ka [8] | binding result [9] | binding result [10] | binding result [11]
1 | B1 | 1.1e+10 M⁻¹ | 1.4e+08 M⁻¹ | 0.00069 s⁻¹ | 93000 M⁻¹ s⁻¹ | 1.1e+10 M⁻¹ | 1e-05 s⁻¹ | 110000 M⁻¹ s⁻¹ | 1e+09 M⁻¹ | 1.1e+10 M⁻¹ | 1e-05 s⁻¹ | 110000 M⁻¹ s⁻¹ | 5.9 | > 1e+09 M⁻¹ |  |  |  | 
2 | B2 |  |  |  |  |  |  |  |  |  |  |  |  |  | ~8e+07 M⁻¹ |  |  | 
3 | B3 | 2.3e+09 M⁻¹ | 7.3e+07 M⁻¹ | 0.0034 s⁻¹ | 250000 M⁻¹ s⁻¹ | 2.3e+09 M⁻¹ | 4.2e-05 s⁻¹ | 98000 M⁻¹ s⁻¹ | 2e+09 M⁻¹ | 2.3e+09 M⁻¹ | 4.2e-05 s⁻¹ | 98000 M⁻¹ s⁻¹ | 1.2 | > 1e+09 M⁻¹ |  |  |  | 
4 | B4 | 4.5e+09 M⁻¹ | 1.3e+08 M⁻¹ | 0.00071 s⁻¹ | 94000 M⁻¹ s⁻¹ | 4.5e+10 M⁻¹ | 1.6e-05 s⁻¹ | 74000 M⁻¹ s⁻¹ | 1e+09 M⁻¹ | 4.5e+09 M⁻¹ | 1.6e-05 s⁻¹ | 74000 M⁻¹ s⁻¹ | 2.5 | > 1e+09 M⁻¹ |  | binds | binds | binds
5 | B5 |  |  |  |  |  |  |  |  |  |  |  |  |  | ~9e+07 M⁻¹ |  |  | 

From US20060183195A1 (published 2006)
